Columns and labels:
ABI5-GST [1] = target: T1, ABI5-GST (Arabidopsis thaliana, UniProt Q9SJN0 1-442); assay: pull-down; in vitro; SPL3 and ABI5 fusion proteins incubated with amylose resin overnight in column buffer (20 mM Tris-HCl pH 7.5, 200 mM NaCl, 1 mM PMSF, 1 mM DTT); blots with anti-GST and anti-MBP; conditions: both partners purified
T1 construct: ABI5, Arabidopsis thaliana, At2g36270, full-length CDS in pGEX4T-1; printed both as ABI5-GST and as GST-ABI5; also called GST-ABI5; source: Escherichia coli transetta
T1 sequence (looked up): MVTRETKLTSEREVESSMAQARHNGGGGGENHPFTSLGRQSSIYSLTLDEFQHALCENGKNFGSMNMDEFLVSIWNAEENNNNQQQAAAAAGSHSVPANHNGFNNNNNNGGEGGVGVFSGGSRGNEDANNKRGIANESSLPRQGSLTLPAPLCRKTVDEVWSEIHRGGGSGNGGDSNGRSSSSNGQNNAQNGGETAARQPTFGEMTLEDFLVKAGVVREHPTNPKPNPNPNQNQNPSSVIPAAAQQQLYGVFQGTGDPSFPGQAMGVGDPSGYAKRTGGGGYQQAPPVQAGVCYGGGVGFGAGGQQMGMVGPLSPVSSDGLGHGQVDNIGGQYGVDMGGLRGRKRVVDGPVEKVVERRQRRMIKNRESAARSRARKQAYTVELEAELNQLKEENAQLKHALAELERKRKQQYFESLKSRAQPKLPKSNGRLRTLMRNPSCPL

ABI5-GST [2] = target: T1, ABI5-GST; assay: pull-down; in vitro; fusion proteins incubated with glutathione resin overnight in column buffer (20 mM Tris-HCl pH 7.5, 200 mM NaCl, 1 mM PMSF, 1 mM DTT); blots with anti-GST and anti-MBP; conditions: both partners purified

B1: MBP-SPL3 (natural protein, Arabidopsis thaliana, UniProt P93015 1-131, looked up)
chain: MSMRRSKAEGKRSLRELSEEEEEEEETEDEDTFEEEEALEKKQKGKATSSSGVCQVESCTADMSKAKQYHKRHKVCQFHAKAPHVRISGLHQRFCQQCSRFHALSEFDEAKRSCRRRLAGHNERRRKSTTD
notes: SPL3, Arabidopsis thaliana, At2g33810, full-length CDS in pMAL-c2X; source: Escherichia coli transetta
- binding result (ABI5-GST [1]): binds

B2: MBP-SPL9 (natural protein, Arabidopsis thaliana, UniProt Q700W2 1-375, looked up)
chain: MEMGSNSGPGHGPGQAESGGSSTESSSFSGGLMFGQKIYFEDGGGGSGSSSSGGRSNRRVRGGGSGQSGQIPRCQVEGCGMDLTNAKGYYSRHRVCGVHSKTPKVTVAGIEQRFCQQCSRFHQLPEFDLEKRSCRRRLAGHNERRRKPQPASLSVLASRYGRIAPSLYENGDAGMNGSFLGNQEIGWPSSRTLDTRVMRRPVSSPSWQINPMNVFSQGSVGGGGTSFSSPEIMDTKLESYKGIGDSNCALSLLSNPHQPHDNNNNNNNNNNNNNNTWRASSGFGPMTVTMAQPPPAPSQHQYLNPPWVFKDNDNDMSPVLNLGRYTEPDNCQISSGTAMGEFELSDHHHQSRRQYMEDENTRAYDSSSHHTNWSL
notes: SPL9, Arabidopsis thaliana, At2g42200, full-length CDS in pMAL-c2X; source: Escherichia coli transetta, purified
- binding result (ABI5-GST [2]): binds

From PMC8334859, “MIR156-Targeted SPL9 Is Phosphorylated by SnRK2s and Interacts With ABI5 to Enhance ABA Responses in Arabidopsis” (Frontiers in Plant Science, 2021)
